Key:
BChE = molecular target: T1, BChE (Mus musculus, UniProt Q03311, A228S/A357W/S256A/S316G/Y361G); test: Selective BChE inhibition by iso-OMPA in vector-treated mice; assay type: in vivo; conditions: AAV-mBChE mut mice, iso-OMPA 40 mg kg^-1, 6 hours fast
T1 construct: expressed in transfected cells; host or cells: C57bl/6 mice after AAV-mBChE mut gene transfer; activity measured in serum/plasma
Procedure: FIGS. 6A-6B. […] All mice were then fasted for 6 hours, and serum samples were collected to determine (6A) BChE activity versus the reference substrate (BTCh) and (6B) the levels of acyl ghrelin.

human acyl-ghrelin = test: Deacylation of human acyl ghrelin by purified human BChE; assay type: biochemical
Procedure: FIGS. 3A-3D. […] (3B) One ng of human acyl-ghrelin was treated with different amount of human BChE. After 20 hours of incubation, residual acyl ghrelin and desacyl ghrelin in each reaction were determined. (3C) One ng of human acyl ghrelin was treated with 10 µg of human BChE and % decrease in residual acyl ghrelin was measured as a function of time. […] The hydrolysis activities with butyrylthiocholine (BTCh) or acyl-ghrelin as substrates were determined by Ellman assay and acyl-ghrelin immunoassay, respectively. Data are normalized to the no inhibitor controls. All values are means ± SD, each with duplicate samples (n=3).
A sample of purified human BChE was obtained from Dr. O. Lockridge and assessed by gel electrophoresis (FIG. 3A).

human ghrelin = test: In vitro enzyme screening: ghrelin hydrolyzing activity of purified mutant BChE (ghrelin immunoassay); assay type: biochemical; conditions: purified enzyme from HEK293 supernatant
[1] = 1 ng human acyl-ghrelin, increasing amounts of human BChE, 20 hours

Molecule: CC(C)NP(=O)(NC(C)C)OP(=O)(NC(C)C)NC(C)C [iso-OMPA]
- BTCh hydrolysis activity of plasma (BChE): abolished
- level of acyl ghrelin in plasma (BChE): equivalent to the level observed in AAV-Luc-treated control mice

B1: human BChE (protein, listed as Homo sapiens)
chain: MHSKVTIICIRFLFWFLLLCMLIGKSHTEDDIIIATKNGKVRGMNLTVFGGTVTAFLGIPYAQPPLGRLRFKKPQSLTKWSDIWNATKYANSCCQNIDQSFPGFHGSEMWNPNTDLSEDCLYLNVWIPAPKPKNATVLIWIYGGGFQTGTSSLHVYDGKFLARVERVIVVSMNYRVGALGFLALPGNPEAPGNMGLFDQQLALQWVQKNIAAFGGNPKSVTLFGESAGAASVSLHLLSPGSHSLFTRAILQSGSFNAPWAVTSLYEARNRTLNLAKLTGCSRENETEIIKCLRNKDPQEILLNEAFVVPYGTPLSVNFGPTVDGDFLTDMPDILLELGQFKKTQILVGVNKDEGTAFLVYGAPGFSKDNNSIITRKEFQEGLKIFFPGVSEFGKESILFHYTDWVDDQRPENYREALGDVVGDYNFICPALEFTKKFSEWGNNAFFYYFEHRSSKLPWPEWMGVMHGYEIEFVFGLPLERRDNYTKAEEILSRSIVKRWANFAKYGNPNETQNNSTSWPVFKSTEQKYLTLNTESTRIMTKLRAQQCRFWTSFFPKVLEMTGNIDEAEWEWKAGFHRWNNYMMDWKNQFNDYTSKKESCVGL
- acyl ghrelin hydrolysis rate as a function of time (human acyl-ghrelin; 1 ng human acyl ghrelin, 10 µg human BChE): linear hydrolysis rate
- amount of acyl ghrelin (human acyl-ghrelin; [1]): decrease in the amount of acyl ghrelin
- amount of desacyl ghrelin (human acyl-ghrelin; [1]): increase in the amount of the breakdown product, desacyl ghrelin

B2: A199S/F227A/S287G/A328W/Y332G (protein)
chain: EDDIIIATKNGKVRGMNLTVFGGTVTAFLGIPYAQPPLGRLRFKKPQSLTKWSDIWNATKYANSCCQNIDQSFPGFHGSEMWNPNTDLSEDCLYLNVWIPAPKPKNATVLIWIYGGGFQTGTSSLHVYDGKFLARVERVIVVSMNYRVGALGFLALPGNPEAPGNMGLFDQQLALQWVQKNIAAFGGNPKSVTLFGESSGAASVSLHLLSPGSHSLFTRAILQSGSANAPWAVTSLYEARNRTLNLAKLTGCSRENETEIIKCLRNKDPQEILLNEAFVVPYGTPLGVNFGPTVDGDFLTDMPDILLELGQFKKTQILVGVNKDEGTWFLVGGAPGFSKDNNSIITRKEFQEGLKIFFPGVSEFGKESILFHYTDWVDDQRPENYREALGDVVGDYNFICPALEFTKKFSEWGNNAFFYYFEHRSSKLPWPEWMGVMHGYEIEFVFGLPLERRDNYTKAEEILSRSIVKRWANFAKYGNPNETQNNSTSWPVFKSTEQKYLTLNTESTRIMTKLRAQQCRFWTSFFPKVLEMTGNIDEAEWEWKAGFHRWNNYMMDWKNQFNDYTSKKESCVGL
- ghrelin hydrolyzing activity in vitro (human ghrelin): modest activity, comparable to that of wild type human BChE

B3: A199S/S227A/S287G/A328W/Y332G (protein)
chain: EEDFIITTKTGRVRGLSMPVLGGTVTAFLGIPYAQPPLGSLRFKKPQPLNKWPDIHNATQYANSCYQNIDQAFPGFQGSEMWNPNTNLSEDCLYLNVWIPVPKPKNATVMVWIYGGGFQTGTSSLPVYDGKFLARVERVIVVSMNYRVGALGFLAFPGNPDAPGNMGLFDQQLALQWVQRNIAAFGGNPKSITIFGESSGAASVSLHLLCPQSYPLFTRAILESGSANAPWAVKHPEEARNRTLTLAKFTGCSKENEMEMIKCLRSKDPQEILRNERFVLPSDSILGINFGPTVDGDFLTDMPHTLLQLGKVKKAQILVGVNKDEGTWFLVGGAPGFSKDNDSLITRKEFQEGLNMYFPGVSRLGKEAVLFYYVDWLGEQSPEVYRDALDDVIGDYNIICPALEFTKKFAELENNAFFYFFEHRSSKLPWPEWMGVMHGYEIEFVFGLPLGRRVNYTRAEEIFSRSIMKTWANFAKYGHPNGTQGNSTMWPVFTSTEQKYLTLNTEKSKIYSKLRAPQCQFWRLFFPKVLEMTGDIDETEQEWKAGFHRWSNYMMDWQNQFNDYTSKKESCTAL
- ghrelin hydrolyzing activity in vitro (human ghrelin): enhanced activity
- ghrelin hydrolyzing activity relative to wild type mouse BChE (human ghrelin): at least 20 fold

Source: US20230193226A1, “BUTYRYLCHOLI[…] AN ENHANCED ABILITY TO HYDROLYZE ACYL GHRELIN” (priority 2014, published 2023)
